Measurements: article PMC3699631, “Posttranslational Modifications of the Histone 3 Tail and Their Impact on the Activity of Histone Lysine Demethylases In Vitro” (PLoS ONE, 2013)

Legend:
human cc-KDM4A = target: T1, human cc-KDM4A (Homo sapiens, UniProt O75164); test: FDH-assay enzyme kinetics of H3 peptide demethylation, truncated KDM4A; type: biochemical; set-up: key to K m / k cat / k cat /K m: 0 means no demethylation could be detected; settings: cc-KDM4A; for K m / k cat / k cat /K m / demethylation / catalytic activity (in words): FDH-assay; for K m: 50 mM HEPES (pH 7.5), 50 mM NaCl, 50 µM FeSO4, 500 µM α-KG, 500 µM ascorbate, 2 mM NAD, substrate 10–1000 µM, NADH fluorescence 15–30 minutes; for K m / k cat / k cat /K m: triplicate; for k cat / k cat /K m: pH 7.5; for k cat: NADH fluorescence; for demethylation / catalytic activity (in words): compared to H3(1–24)K9me3 where a change is stated
T1 construct: Truncated constructs of KDM4A and KDM4C containing only the catalytic cores (cc-KDM4A/cc-KDM4C); made in house
T1 sequence (O75164 1-350 limits assumed): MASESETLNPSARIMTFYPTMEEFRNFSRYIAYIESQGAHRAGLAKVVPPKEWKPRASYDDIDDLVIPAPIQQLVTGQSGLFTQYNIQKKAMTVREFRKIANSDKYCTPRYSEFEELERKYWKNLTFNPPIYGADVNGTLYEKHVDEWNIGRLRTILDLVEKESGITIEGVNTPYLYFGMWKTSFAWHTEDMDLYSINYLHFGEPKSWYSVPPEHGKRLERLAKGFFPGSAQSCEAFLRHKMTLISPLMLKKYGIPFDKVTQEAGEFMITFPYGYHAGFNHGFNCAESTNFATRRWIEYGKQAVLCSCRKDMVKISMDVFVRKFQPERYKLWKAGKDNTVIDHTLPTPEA
Procedure: (§1) The enzyme kinetics were measured using a Formaldehyde DeHydrogenase Assay (FDH-Assay) and the demethylation of substrates was confirmed when possible by MALDI-TOF-MS, see File S1 for details. The test solution contained 50 mM HEPES (pH 7.5), 50 mM NaCl, 50 µM FeSO4, 500 µM α-KG, 500 µM ascorbate, 2 mM NAD, approximately 0.05 unit of FDH and e.g. 4.88 µM KDM4C (enzyme concentration varied between batches). The reference solution was comprised of the same except substrate. The assay was initiated by adding various concentrations of H3 peptide substrates e.g. H3(1–24)K9me3 (10–1000 µM) and the increase in NADH fluorescence was measured over 15–30 minutes in 30 second intervals. Data analysis and kinetic values were obtained using programs Excel and GraphPad Prism® 5.0. For details, see File S1.
(§2) The standard deviations for k cat/K m were calculated using the statistic law of propagation of errors. Standard errors for Michaelis-Menten Kinetics were automatically given in GraphPad Prism®, with a 95% confidence interval. All enzyme kinetic curves were done in triplicate unless otherwise stated.
(§3) Test for activity of enzyme using the fluorescence FDH assay, determination of Vmax and Km of enzymes with substrate, expression and purification of cc-KDM4A and cc-KDM4C software and parameters for the FDH coupled assay, see Lohse et al.^21
as §2, with “kcat/ Km” for “k cat/K m”, “95 %” for “95%”

human cc-KDM4C = target: T2, human cc-KDM4C (Homo sapiens, UniProt Q9H3R0); test: FDH-assay enzyme kinetics of H3 peptide demethylation, truncated KDM4C; type: biochemical; settings: for demethylation / catalytic activity (in words) / K m / k cat / k cat /K m: FDH-assay; for demethylation / catalytic activity (in words): compared to H3(1–24)K9me3 where a change is stated; for K m: 50 mM HEPES (pH 7.5), 50 mM NaCl, 50 µM FeSO4, 500 µM α-KG, 500 µM ascorbate, 2 mM NAD, substrate 10–1000 µM, e.g. 4.88 µM KDM4C, NADH fluorescence 15–30 minutes; for K m / k cat: triplicate; for k cat: pH 7.5, NADH fluorescence; for k cat /K m: pH 7.5, triplicate
T2 construct: Truncated constructs of KDM4A and KDM4C containing only the catalytic cores (cc-KDM4A/cc-KDM4C); made in house
T2 sequence (Q9H3R0 1-349 limits assumed): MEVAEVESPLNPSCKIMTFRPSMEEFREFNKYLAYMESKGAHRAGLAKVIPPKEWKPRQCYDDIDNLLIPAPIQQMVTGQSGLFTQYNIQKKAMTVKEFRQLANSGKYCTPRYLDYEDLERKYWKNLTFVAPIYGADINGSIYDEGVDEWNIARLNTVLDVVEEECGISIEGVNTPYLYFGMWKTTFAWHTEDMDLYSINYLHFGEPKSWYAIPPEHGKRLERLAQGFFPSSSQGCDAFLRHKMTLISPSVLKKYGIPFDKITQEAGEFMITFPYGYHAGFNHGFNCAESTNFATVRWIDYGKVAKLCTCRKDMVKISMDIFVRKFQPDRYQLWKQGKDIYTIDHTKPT
Procedure: as §1, §2, §3
as §2, with “kcat/ Km” for “k cat/K m”, “95 %” for “95%”

[1] = SD by propagation of errors, unit: min^−1 * µM^−1 * 10^3
[2] = SD by propagation of errors, unit: (min^−1 * µM^−1) * 10^3

| Substance | K m (human cc-KDM4A) | k cat (human cc-KDM4A) | k cat /K m (human cc-KDM4A; [1]) | demethylation / catalytic activity (in words) (human cc-KDM4A) | demethylation / catalytic activity (in words) (human cc-KDM4C) | K m (human cc-KDM4C) | k cat (human cc-KDM4C) | k cat /K m (human cc-KDM4C; [2]) | k cat /K m (human cc-KDM4A; figures and text) [min^-1 * μM^-1 * 10^3] | k cat /K m (human cc-KDM4C; figures) [min^-1 * μM^-1 * 10^3] | fold increase in k cat/K m (human cc-KDM4A; compared to H3(1–24)K9me3) [fold] | fold increase in k cat/K m (human cc-KDM4C; compared to H3(1–24)K9me3) [fold] |
| --- | --- | --- | --- | --- | --- | --- | --- | --- | --- | --- | --- | --- |
| H3(1–24)K9me3T11(ph): H3(1–24)K9me3 with phosphorylation of threonine 11 | 0 | 0 | 0 | no detectable turnover | no detectable turnover |  |  |  |  |  |  |  |
| H3(1–24)K9me2: truncated histone tail, 24 first amino acids from the N-terminus of H3, dimethylated lysine 9 | Below detection | Below detection | Below detection | could not be detected |  | 79±10 | 0.1±0.01 | 1.3±0.2 |  |  |  |  |
| H3(1–24)K9me3: truncated histone tail, 24 first amino acids from the N-terminus of H3, trimethylated lysine 9; control peptide | 131±16 | 1.1±0.04 | 8.4±1.1 |  |  | 55±11 | 0.5±0.04 | 9±1 | 8.4±1.1 | 9 ± 1 |  |  |
| H3(1–24)K4me3K9me3: bis-tri-methylated substrate, trimethylated K4 in combination with H3K9me3 | 82±11 | 1.1±0.04 | 13.4±1.9 |  | an increase of the enzymatic catalytic efficiency | 70±13 | 1.2±0.1 | 17±2 | 13±2 | 17 ± 2 | 2 | 2 |
